How the values were obtained:
[1] = molecular target: T1, FcγRIIb extracellular domain with C-terminal His tag (human, UniProt P31994 43-217); assay: SPR (Biacore)
T1 construct: extracellular domain; For crystals it was expressed with kifunensine and trimmed with Endo F1; also called FcgRIIb; FcγRIIb extracellular region
T1 sequence (looked up): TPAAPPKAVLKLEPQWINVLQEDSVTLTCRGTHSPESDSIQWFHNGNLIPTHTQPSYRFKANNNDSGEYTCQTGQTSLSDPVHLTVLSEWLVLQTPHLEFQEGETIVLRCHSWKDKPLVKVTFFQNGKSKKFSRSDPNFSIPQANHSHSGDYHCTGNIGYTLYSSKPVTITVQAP

FcγRIIa type R = molecular target: T2, FcγRIIa type R (human, UniProt P12318 34-217); assay: SPR (Biacore), captured antibody, soluble FcγR
T2 chain: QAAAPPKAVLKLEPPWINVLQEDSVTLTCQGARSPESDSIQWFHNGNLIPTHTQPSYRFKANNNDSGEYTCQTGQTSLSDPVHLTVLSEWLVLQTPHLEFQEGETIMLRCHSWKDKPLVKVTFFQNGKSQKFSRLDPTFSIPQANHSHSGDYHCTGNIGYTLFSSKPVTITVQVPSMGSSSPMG

FcγRIIa type H = molecular target: T3, FcγRIIa type H (human, UniProt P12318 34-217); assay: SPR (Biacore), captured antibody, soluble FcγR
T3 construct: extracellular domain; also called FcγRIIaH; FcgRIIaH
T3 sequence (looked up): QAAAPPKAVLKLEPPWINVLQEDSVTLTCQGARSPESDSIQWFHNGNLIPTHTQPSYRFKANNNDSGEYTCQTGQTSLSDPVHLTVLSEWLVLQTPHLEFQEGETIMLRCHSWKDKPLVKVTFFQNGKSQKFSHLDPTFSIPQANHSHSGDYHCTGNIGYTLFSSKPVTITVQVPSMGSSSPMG

B1: variant resulting from adding V266M to IL6R-BP267/IL6R-L (antibody, human IgG1, kappa)
heavy: QVQLQESGPGLVKPSETLSLTCAVSGHSISHDHAWSWVRQPPGEGLEWIGFISYSGITNYNPSLQGRVTISRDNSKNTLYLQMNSLRAEDTAVYYCARSLARTTAMDYWGEGTLVTVSSASTKGPSVFPLAPSSKSTSGGTAALGCLVKDYFPEPVTVSWNSGALTSGVHTFPAVLQSSGLYSLSSVVTVPSSSLGTQTYICNVNHKPSNTKVDKKVEPKSCDKTHTCPPCPAPDLLGDDSVFLFPPKPKDTLMISRTPEVTCVVVDMSEEDGEVKFNWYVDGVEVHNAKTKPREEQYNSTYRVVSVLTVLHQDWLNGKEYKCKVSNKALPAPIEKTISKAKGQPREPQVYTLPPSRDELTKNQVSLTCLVKGFYPSDIAVEWESNGQPENNYKTTPPVLDSDGSFFLYSKLTVDKSRWQQGNVFSCSVMHEALHNHYTQESLSLSP
light: not shown
binding result [1]: binds

B2: IL6R-AP002/IL6R-BP256/IL6R-L (antibody, human IgG1, kappa)
heavy 1: QVQLQESGPGLVKPSETLSLTCAVSGHSISHDHAWSWVRQPPGEGLEWIGFISYSGITNYNPSLQGRVTISRDNSKNTLYLQMNSLRAEDTAVYYCARSLARTTAMDYWGEGTLVTVSSASTKGPSVFPLAPSSKSTSGGTAALGCLVKDYFPEPVTVSWNSGALTSGVHTFPAVLQSSGLYSLSSVVTVPSSSLGTQTYICNVNHKPSNTKVDKKVEPKSCDKTHTCPPCPAPDLLGDDSVFLFPPKPKDTLMISRTPEVTCVVVDVSDEDGEVKFNWYVDGVEVHNAKTKPREEQYNSTYRVVSVLTVLHQDWLNGKEYKCKVSNKALPRPIEKTISKAKGQPREPQVYTLPPSRKELTKNQVSLTCLVKGFYPSDIAVEWESNGQPENNYKTTPPVLDSDGSFFLYSKLTVDKSRWQQGNVFSCSVMHEALHNRYTQKSLSLSP
heavy 2: QVQLQESGPGLVKPSETLSLTCAVSGHSISHDHAWSWVRQPPGEGLEWIGFISYSGITNYNPSLQGRVTISRDNSKNTLYLQMNSLRAEDTAVYYCARSLARTTAMDYWGEGTLVTVSSASTKGPSVFPLAPSSKSTSGGTAALGCLVKDYFPEPVTVSWNSGALTSGVHTFPAVLQSSGLYSLSSVVTVPSSSLGTQTYICNVNHKPSNTKVDKKVEPKSCDKTHTCPPCPAPDLLGDDDVFLFPPKPKDTLMISRTPEVTCVVVDVSDEDGEVKFNWYVDGVEVHNAKTKPREEQYNSTYRVVSVLTVLHQDWLNGKEYKCKVSNKALPRPIEKTISKAKGQPREPQVYTLPPSRDELTKNQVSLTCLVKGFYPSDIAVEWESNGQPENNYKTTPPVLDSDGSFFLYSKLTVDKSRWQQGNVFSCSVMHEALHNHYTQESLSLSP
light: not shown
notes: Heterodimer: S239D in one chain only
binding result [1]: binds

B3: IL6R-AP009/IL6R-BP259/IL6R-L (antibody, human IgG1, kappa)
heavy 1: QVQLQESGPGLVKPSETLSLTCAVSGHSISHDHAWSWVRQPPGEGLEWIGFISYSGITNYNPSLQGRVTISRDNSKNTLYLQMNSLRAEDTAVYYCARSLARTTAMDYWGEGTLVTVSSASTKGPSVFPLAPSSKSTSGGTAALGCLVKDYFPEPVTVSWNSGALTSGVHTFPAVLQSSGLYSLSSVVTVPSSSLGTQTYICNVNHKPSNTKVDKKVEPKSCDKTHTCPPCPAPDLLGDDSVFLFPPKPKDTLMISRTPEVTCVVVDVSDEDGEVKFNWYVDGVEVHNAKTKPREEQDNSTYRVVSVLTVLHQDWLNGKEYKCKVSNKALPRPIEKTISKAKGQPREPQVYTLPPSRKELTKNQVSLTCLVKGFYPSDIAVEWESNGQPENNYKTTPPVLDSDGSFFLYSKLTVDKSRWQQGNVFSCSVMHEALHNRYTQKSLSLSP
heavy 2: QVQLQESGPGLVKPSETLSLTCAVSGHSISHDHAWSWVRQPPGEGLEWIGFISYSGITNYNPSLQGRVTISRDNSKNTLYLQMNSLRAEDTAVYYCARSLARTTAMDYWGEGTLVTVSSASTKGPSVFPLAPSSKSTSGGTAALGCLVKDYFPEPVTVSWNSGALTSGVHTFPAVLQSSGLYSLSSVVTVPSSSLGTQTYICNVNHKPSNTKVDKKVEPKSCDKTHTCPPCPAPDLLGDDDVFLFPPKPKDTLMISRTPEVTCVVVDVSDEDGEVKFNWYVDGVEVHNAKTKPREEQDNSTYRVVSVLTVLHQDWLNGKEYKCKVSNKALPRPIEKTISKAKGQPREPQVYTLPPSRDELTKNQVSLTCLVKGFYPSDIAVEWESNGQPENNYKTTPPVLDSDGSFFLYSKLTVDKSRWQQGNVFSCSVMHEALHNHYTQESLSLSP
light: not shown
notes: as for B2
binding result [1]: binds

B4: IL6R-BP438/IL6R-L (antibody, human IgG1, kappa)
heavy: QVQLQESGPGLVKPSETLSLTCAVSGHSISHDHAWSWVRQPPGEGLEWIGFISYSGITNYNPSLQGRVTISRDNSKNTLYLQMNSLRAEDTAVYYCARSLARTTAMDYWGEGTLVTVSSASTKGPSVFPLAPSSKSTSGGTAALGCLVKDYFPEPVTVSWNSGALTSGVHTFPAVLQSSGLYSLSSVVTVPSSSLGTQTYICNVNHKPSNTKVDKKVEPKSCDKTHTCPPCPAPDLLGDDSVFLFPPKPKDTLMISRTPEVTCVVVDVAEEDGEVKFNWYVDGVEVHNAKTKPREEQYNSTYRVVSVLTVLHQDWLNGKEYKCKVSNKALPRPTEKTISKAKGQPREPQVYTLPPSRDELTKNQVSLTCLVKGFYPSDIAVEWESNGQPENNYKTTPPVLDSDGSFFLYSKLTVDKSRWQQGNVFSCSVMHEALHNHYTQESLSLSP
light: not shown
notes: Alterations in EU numbering, introduced into IL6R-B3
Kd (FcγRIIa type R): 180 nM
Kd (FcγRIIa type H): 1600 nM

B5: IL6R-AP002/IL6R-BP257/IL6R-L (antibody, human IgG1, kappa)
heavy 1: QVQLQESGPGLVKPSETLSLTCAVSGHSISHDHAWSWVRQPPGEGLEWIGFISYSGITNYNPSLQGRVTISRDNSKNTLYLQMNSLRAEDTAVYYCARSLARTTAMDYWGEGTLVTVSSASTKGPSVFPLAPSSKSTSGGTAALGCLVKDYFPEPVTVSWNSGALTSGVHTFPAVLQSSGLYSLSSVVTVPSSSLGTQTYICNVNHKPSNTKVDKKVEPKSCDKTHTCPPCPAPDLLGDDSVFLFPPKPKDTLMISRTPEVTCVVVDVSDEDGEVKFNWYVDGVEVHNAKTKPREEQYNSTYRVVSVLTVLHQDWLNGKEYKCKVSNKALPRPIEKTISKAKGQPREPQVYTLPPSRKELTKNQVSLTCLVKGFYPSDIAVEWESNGQPENNYKTTPPVLDSDGSFFLYSKLTVDKSRWQQGNVFSCSVMHEALHNRYTQKSLSLSP
heavy 2: QVQLQESGPGLVKPSETLSLTCAVSGHSISHDHAWSWVRQPPGEGLEWIGFISYSGITNYNPSLQGRVTISRDNSKNTLYLQMNSLRAEDTAVYYCARSLARTTAMDYWGEGTLVTVSSASTKGPSVFPLAPSSKSTSGGTAALGCLVKDYFPEPVTVSWNSGALTSGVHTFPAVLQSSGLYSLSSVVTVPSSSLGTQTYICNVNHKPSNTKVDKKVEPKSCDKTHTCPPCPAPDLLGDDEVFLFPPKPKDTLMISRTPEVTCVVVDVSDEDGEVKFNWYVDGVEVHNAKTKPREEQYNSTYRVVSVLTVLHQDWLNGKEYKCKVSNKALPRPIEKTISKAKGQPREPQVYTLPPSRDELTKNQVSLTCLVKGFYPSDIAVEWESNGQPENNYKTTPPVLDSDGSFFLYSKLTVDKSRWQQGNVFSCSVMHEALHNHYTQESLSLSP
light: not shown
notes: Heterodimer: S239E in one chain only
binding result [1]: binds

B6: IL6R-AP009/IL6R-BP260/IL6R-L (antibody, human IgG1, kappa)
heavy 1: QVQLQESGPGLVKPSETLSLTCAVSGHSISHDHAWSWVRQPPGEGLEWIGFISYSGITNYNPSLQGRVTISRDNSKNTLYLQMNSLRAEDTAVYYCARSLARTTAMDYWGEGTLVTVSSASTKGPSVFPLAPSSKSTSGGTAALGCLVKDYFPEPVTVSWNSGALTSGVHTFPAVLQSSGLYSLSSVVTVPSSSLGTQTYICNVNHKPSNTKVDKKVEPKSCDKTHTCPPCPAPDLLGDDSVFLFPPKPKDTLMISRTPEVTCVVVDVSDEDGEVKFNWYVDGVEVHNAKTKPREEQDNSTYRVVSVLTVLHQDWLNGKEYKCKVSNKALPRPIEKTISKAKGQPREPQVYTLPPSRKELTKNQVSLTCLVKGFYPSDIAVEWESNGQPENNYKTTPPVLDSDGSFFLYSKLTVDKSRWQQGNVFSCSVMHEALHNRYTQKSLSLSP
heavy 2: QVQLQESGPGLVKPSETLSLTCAVSGHSISHDHAWSWVRQPPGEGLEWIGFISYSGITNYNPSLQGRVTISRDNSKNTLYLQMNSLRAEDTAVYYCARSLARTTAMDYWGEGTLVTVSSASTKGPSVFPLAPSSKSTSGGTAALGCLVKDYFPEPVTVSWNSGALTSGVHTFPAVLQSSGLYSLSSVVTVPSSSLGTQTYICNVNHKPSNTKVDKKVEPKSCDKTHTCPPCPAPDLLGDDEVFLFPPKPKDTLMISRTPEVTCVVVDVSDEDGEVKFNWYVDGVEVHNAKTKPREEQDNSTYRVVSVLTVLHQDWLNGKEYKCKVSNKALPRPIEKTISKAKGQPREPQVYTLPPSRDELTKNQVSLTCLVKGFYPSDIAVEWESNGQPENNYKTTPPVLDSDGSFFLYSKLTVDKSRWQQGNVFSCSVMHEALHNHYTQESLSLSP
light: not shown
notes: as for B5
binding result [1]: binds

B7: IL6R-BP567/IL6R-L (antibody, human IgG1, kappa)
heavy: QVQLQESGPGLVKPSETLSLTCAVSGHSISHDHAWSWVRQPPGEGLEWIGFISYSGITNYNPSLQGRVTISRDNSKNTLYLQMNSLRAEDTAVYYCARSLARTTAMDYWGEGTLVTVSSASTKGPSVFPLAPSSKSTSGGTAALGCLVKDYFPEPVTVSWNSGALTSGVHTFPAVLQSSGLYSLSSVVTVPSSSLGTQTYICNVNHKPSNTKVDKKVEPKSCDKTHTCPPCPAPDLLGGDSVFLFPPKPKDTLMISRTPEVTCVVIDVAEEDGEVKFNWYVDGVEVHNAKTKPREEQDNSTYRVVSVLTVLHQDWLNGKEYKCKVSNKALPAPIEKTISKAKGQPREPQVYTLPPSRDELTKNQVSLTCLVKGFYPSDIAVEWESNGQPENNYKTTPPVLDSDGSFFLYSKLTVDKSRWQQGNVFSCSVMHEALHNHYTQESLSLSP
light: not shown
binding relative to IL6R-B3/IL6R-L [1]: ≥ 100 times

— patent publication US20210261648A1 (published 2021)
